Reference: US8598312B2, “Inhibitors of antigen presentation by MHC class II molecules” (Provid Pharmaceuticals, Inc., priority 2003, dated 2013)
Where a SMILES comes first, the peptide text is derived from it. Where no end group is shown, it is not given here. [ ]: non-standard residue; d: D form. Ala(indol-4-yl) = N[C@@H](Cc1cccc2[nH]ccc12)C(=O)O; Gly(cPent) = N[C@H](C(=O)O)C1CCCC1; Tic = O=C(O)[C@@H]1Cc2ccccc2CN1; Chg = N[C@H](C(=O)O)C1CCCCC1; Pip = O=C(O)[C@@H]1CCCCN1; Idg = not defined here

What was measured:
[1] = molecular target: DRB1*1501 molecules (Homo sapiens, UniProt P01903+P01911); conditions: DR2 haplotype; cited from earlier work
[2] = molecular target: DRB5*0101 molecules (Homo sapiens, UniProt P01903+Q30154); conditions: DR2 haplotype; cited from earlier work
[3] = test system: T cell proliferation; conditions: cited from earlier work
[4] = in vivo; cited from earlier work
[5] = molecular target: DR13 (HLA-DR molecules); experiment: HLA II binding assay, DR13; parameters: species or system human; conditions: read-out: Inhibition of peptide binding IC50 DR13
[6] = molecular target: MHC class II HLA-DR2 (DRA*0101/DRB1*1501) (human); experiment: competition binding assay, purified HLA-DR, biotinylated reference peptide SEQ ID NO 107 as competitor, L243 capture
[7] = molecular target: T1, MHC class II HLA-DR2 (DRA*0101/DRB1*1501) (human, UniProt P01903 26-254; P01911 30-266, limits assumed); experiment: as above
T1 construct: mature; Detergent-solubilised native molecule purified from cells; also called DR2b

[8] = molecular target: T2, DR2a (human, UniProt P01903 26-216, limits assumed); experiment: competition binding assay, purified HLA-DR, biotinylated reference peptide (not named), L243 capture
T2 construct: mature

Molecule	IC50 [7] [nM]	IC50 [8] [nM]	other results
MBP (84-102): immunodominant myelin basic protein (84-102) peptide (DPGSRPHLIRLFSRDAPGR; Myelin basic protein; UniProt P02686 84-102, looked up, fragment)			binding affinity to DRB1*1501 molecules [1]: high affinity; binding affinity to DRB5*0101 molecules [2]: high affinity
a(Cha)AAAKTAAAAa-NH2			suppression of T cell proliferation in response to protein antigens [3]: did not supress T cell proliferation; activity in animal models of autoimmune disease [4]: did not show activity
CC(=O)N[C@H](C(=O)N[C@@H](CCCNC(=N)N)C(=O)N1Cc2ccccc2C[C@H]1C(=O)N[C@@H](Cc1ccccc1)C(=O)N1CCCC[C@H]1C(N)=O)C1CCCC1 [Ac(Cpg)R(Tic)F(hPro), Ac(Cpg)R(Tic)F(homo Pro)] (Ac-[Gly(cPent)]R[Tic]F[Pip]-NH2; N-terminus and C-terminus assumed)			IC50 [5]: > 100000 nM
Ac(Cpg)R(Tic)F(hPro) (peptide)			IC50 [6]: 75 nM
Ac-V[Chg]RFFK (not fully specified; printed as AcV(Chg)RFFK, also called Entry 85) [AcV(Chg)RFFK]	3	685	
Ac-[Gly(cPent)]RFFKNI (not fully specified; printed as Ac(Cpg)RFFKNI, also called Entry 25) [Ac(Cpg)RFFKNI]	25	630	
Ac-[Idg]RFFKNI (not fully specified; printed as Ac(Idg)RFFKNI; reading uncertain, also called Entry 64) [Ac(Idg)RFFKNI]	90	17	
Ac-VHFFKNI (also called Entry 2) [AcVHFFKNI]	450		
Ac-[Chg]RF[Ala(indol-4-yl)]KNI (not fully specified; printed as Ac(Chg)RF(4′-IndolylAla)KNI, also called Entry 79) [Ac(Chg)RF(4′-IndolylAla)KNI]	6	3580	
